{
  "source": "patent US20240181006A1",
  "about": "“POLYPEPTIDES BINDING ADAMTS5, MMP13 AND AGGRECAN” (Merck Patent GmbH, priority 2017, published 2024)",
  "molecules": {"B1": {"name": "ISVD 02F03: immunoglobulin single variable domain which specifically binds ADAMTS5 (protein)", "VHH": "EVQLVESGGGVVQPGGSLRLSCAASGRTVSSYAMGWFRQAPGKEREFVAGISRSAERTYYVDSLKGRFTISRDNSKNTVYLQMNSLRPEDTALYYCAADLDPNRIFSREEYAYWGQGTLVTVSS", "modifications": "Description of Artificial Sequence: Synthetic anti-ADAMTS5 immunoglobulin single variable domain (ISVD)"}},
  "key": {"human ADAMTS5": {"target": "T1, human ADAMTS5 (Homo sapiens, UniProt Q9UNA0)", "T1 sequence (Q9UNA0 262-930)": "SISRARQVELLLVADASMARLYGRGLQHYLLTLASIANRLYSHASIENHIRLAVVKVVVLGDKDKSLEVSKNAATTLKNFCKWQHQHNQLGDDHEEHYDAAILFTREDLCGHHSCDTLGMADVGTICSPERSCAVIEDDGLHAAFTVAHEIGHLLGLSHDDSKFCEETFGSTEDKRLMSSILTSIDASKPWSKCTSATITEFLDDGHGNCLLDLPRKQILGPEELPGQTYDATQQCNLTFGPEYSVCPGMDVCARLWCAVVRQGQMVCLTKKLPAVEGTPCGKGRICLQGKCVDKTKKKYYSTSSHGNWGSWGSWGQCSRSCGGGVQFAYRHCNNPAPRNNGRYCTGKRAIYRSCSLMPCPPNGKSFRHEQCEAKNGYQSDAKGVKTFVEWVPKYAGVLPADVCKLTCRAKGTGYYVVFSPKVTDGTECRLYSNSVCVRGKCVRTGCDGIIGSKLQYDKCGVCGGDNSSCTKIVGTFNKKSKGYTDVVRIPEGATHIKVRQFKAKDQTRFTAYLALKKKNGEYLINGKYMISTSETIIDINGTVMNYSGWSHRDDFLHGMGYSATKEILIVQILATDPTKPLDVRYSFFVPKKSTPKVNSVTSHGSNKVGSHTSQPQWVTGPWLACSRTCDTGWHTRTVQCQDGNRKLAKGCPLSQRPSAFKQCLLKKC", "assay": "AlphaLISA based human ADAMTS5 assay", "format": "biochemical", "experimental": "In short, a periplasmic extract of ISVD 02F03 was tested for binding to recombinant human ADAMTS5 by binding ELISA. Next, it was confirmed that ISVD 02F03 was able to prevent ADAMTS5-mediated cleavage of Aggrecan in a FRET-based human ADAMTS5 enzymatic assay. Next to the FRET-based assay, an AlphaLISA (Perkin Elmer, Waltham, MA, US) based human ADAMTS5 assay with a biotinylated 43-mer Aggrecan oligopeptide as substrate was performed. Upon ADAMTS5 cleavage of this substrate, a biotinylated ARGSV neo-epitope product is released and can be detected by streptavidin-AlphaScreen donor beads and an α-neo-epitope (“ARGSV”) antibody captured on anti-mouse IgG-coated AlphaLISA acceptor beads, resulting in the generation of a luminescence AlphaScreen signal upon laser excitation. To determine the ability of ISVD 02F03 to prevent ADAMTS5-mediated cleavage of the substrate, the decrease in signal was analysed in function of ISVD 02F03 concentration and IC50 values were calculated."}, "mouse ADAMTS5": {"target": "T2, mouse ADAMTS5 (Mus musculus, UniProt Q9R001)", "T2 sequence (Q9R001 262-930)": "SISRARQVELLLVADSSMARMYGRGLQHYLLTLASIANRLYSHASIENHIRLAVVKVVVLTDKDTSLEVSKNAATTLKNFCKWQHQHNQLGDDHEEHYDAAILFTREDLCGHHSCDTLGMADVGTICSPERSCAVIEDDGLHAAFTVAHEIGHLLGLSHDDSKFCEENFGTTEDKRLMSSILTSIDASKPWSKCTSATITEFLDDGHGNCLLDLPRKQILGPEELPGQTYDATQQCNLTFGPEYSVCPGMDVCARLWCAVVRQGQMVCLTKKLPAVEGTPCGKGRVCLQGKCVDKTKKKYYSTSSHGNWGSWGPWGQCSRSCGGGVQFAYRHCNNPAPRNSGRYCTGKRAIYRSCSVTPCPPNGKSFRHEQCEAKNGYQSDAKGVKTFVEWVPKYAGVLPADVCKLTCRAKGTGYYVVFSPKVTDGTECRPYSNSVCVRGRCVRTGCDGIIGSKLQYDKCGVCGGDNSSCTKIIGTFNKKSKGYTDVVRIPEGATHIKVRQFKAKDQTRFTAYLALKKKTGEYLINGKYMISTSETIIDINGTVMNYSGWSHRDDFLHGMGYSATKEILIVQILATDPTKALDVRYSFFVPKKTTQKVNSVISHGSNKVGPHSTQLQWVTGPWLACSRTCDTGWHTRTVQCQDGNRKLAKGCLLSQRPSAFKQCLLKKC", "assay": "SPR-based off-rate analysis, mouse ADAMTS5", "format": "binding", "conditions": "Experiment 2", "experimental": "Species cross-reactivity was initially evaluated via SPR-based off-rate analysis on a Biacore T100 instrument. Polypeptides were tested for binding to human, cynomolgus monkey (“cyno”), guinea pig, mouse, and bovine ADAMTS5. To this end, recombinant ADAMTS5 was immobilized onto a CM5 chip via amine coupling using EDC and NHS. Purified ISVD 02F03 was injected for 2 minutes at a concentration of 100 nM and allowed to dissociate for 15 min at a flow rate of 45 μl/min. Off-rate for each individual ADAMTS5 was determined by fitting a 1:1 interaction model (Langmuir model) onto the individual dissociation curves using the BIA Evaluation software. As a reference, off-rates on human ADAMTS5 were determined in each experiment."}, "human ADAMTS4": {"target": "T3, human ADAMTS4 (Homo sapiens, UniProt O75173)", "T3 construct": "purchased R&D Systems 4307-AD", "T3 sequence (O75173 213-837)": "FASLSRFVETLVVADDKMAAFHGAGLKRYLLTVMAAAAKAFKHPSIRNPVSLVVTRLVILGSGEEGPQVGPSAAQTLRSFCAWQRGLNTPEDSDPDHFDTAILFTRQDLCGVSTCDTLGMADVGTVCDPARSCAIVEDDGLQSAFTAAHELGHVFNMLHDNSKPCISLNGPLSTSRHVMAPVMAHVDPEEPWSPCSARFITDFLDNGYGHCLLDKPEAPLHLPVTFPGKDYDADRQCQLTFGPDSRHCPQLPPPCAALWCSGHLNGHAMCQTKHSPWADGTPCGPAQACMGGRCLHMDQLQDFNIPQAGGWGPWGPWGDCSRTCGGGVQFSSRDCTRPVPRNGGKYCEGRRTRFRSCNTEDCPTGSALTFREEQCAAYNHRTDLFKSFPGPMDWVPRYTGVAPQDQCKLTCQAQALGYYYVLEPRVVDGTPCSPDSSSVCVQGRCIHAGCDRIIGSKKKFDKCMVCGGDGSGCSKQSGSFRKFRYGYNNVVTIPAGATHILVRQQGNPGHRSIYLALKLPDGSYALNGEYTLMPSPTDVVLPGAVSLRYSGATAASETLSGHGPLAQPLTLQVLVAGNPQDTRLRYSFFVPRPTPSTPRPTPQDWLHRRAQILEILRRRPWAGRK", "assay": "human ADAMTS4 AlphaLISA", "format": "biochemical", "conditions": "data not shown", "experimental": "To confirm the selectivity of ISVD 02F03 for ADAMTS5, inhibition of the enzymatic activity of MMP1, MMP14 and ADAMTS4 was evaluated via FRET-based assays and a human ADAMTS4 AlphaLISA, with the respective enzymes.\nTo evaluate inhibition of human ADAMTS4, an assay similar to the human ADAMTS5 AlphaLISA was carried out, essentially as described in Example 2.1, but using human ADAMTS4 (R&D Systems, Minneapolis, US; cat #4307-AD). To determine the ability of ISVD 02F03 to prevent human ADAMTS4-mediated cleavage of the substrate, the decrease in signal was analysed in function of ISVD 02F03 concentration and IC50 values were calculated."}},
  "data": [
    {"molecule": "B1", "values": [
      {"measurement": "Human AlphaLISA % inhibition", "setting": "human ADAMTS5", "value": 100, "unit": "%"},
      {"measurement": "SPR based off-rate, kd, Mouse ADAMTS-5", "setting": "mouse ADAMTS5", "value": 0.00029, "unit": "s⁻¹"},
      {"measurement": "inhibition of human ADAMTS4 activity", "setting": "human ADAMTS4", "value": "did not show any inhibitory activity"}
    ]}
  ]
}
